Results on two sequences are retold here after US20170137818.

Bounds are passed on as bounds.

This data set concerns the target autotaxin (ENPP2/NPP2) (Homo sapiens) (UniProt Q13822). Description: inhibition.
Where [1] appears, read: NPP2 assay, no inhibition up to 1.0 uM.

As for “GTGGTCTAGCTGTACTCNNNNNNNNNNNNNNNNNNNNNNNNNNNNNNNNNNNNNNNNCCACAGTCAACGAGCTA [40N DNA pool (SEQ 1)]”, the IC50 runs as follows: (LysoPLD assay, table says 40N only (which pool not stated)) greater than 1000 nM; under setting [1], greater than 1000 nM.

Take “ACACTCACAGGCGCTGGNNNNNNNNNNNNNNNNNNNNNNNNNNNNNNCGTGCATGGCCGCTAGT [DNA pool (SEQ 17)]”: under setting [1], the 50% inhibitory concentration (IC50) was greater than 1000 nM.
